Our source for the Kd, koff and kon values is US20170224769A1.

For orientation: Kd means the concentration at which binding is half-saturated. As usually defined, the koff is a measure of how fast the partners let go of each other. High values mean a short-lived complex, low ones a long-lived complex. By kon is commonly meant the second-order rate constant of association. High values mean faster complex formation, low ones slower complex formation.

The experiment addresses high mobility group box 1 protein (HMGB1) (Homo sapiens (Human)) (UniProt P09429). The experiment is described as follows: SPR (Reichert SR7500DC), HMGB1 coated on CMDH chip.
Chain of UniProt P09429 (P09429 whole entry, form in doubt): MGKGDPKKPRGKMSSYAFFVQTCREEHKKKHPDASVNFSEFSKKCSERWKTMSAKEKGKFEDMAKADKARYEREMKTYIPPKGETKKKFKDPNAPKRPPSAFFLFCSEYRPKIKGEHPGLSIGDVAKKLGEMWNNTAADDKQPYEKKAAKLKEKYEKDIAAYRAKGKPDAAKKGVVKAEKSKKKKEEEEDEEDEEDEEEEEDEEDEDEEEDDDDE

“rHMGB1A-his6 (high mobility group box 1 A domain, C-terminal six histidines) (from UniProt P09429 1-164)”: the Kd stood at 2800 nM, the dissociation rate constant (koff) came to 0.00394 s⁻¹ and the kon stood at 1400 M⁻¹ s⁻¹.
For “rTAT-HMGB1A-his6 (fusion of the TAT peptide and the A box domain of HMGB1, C-terminal six histidines) (from UniProt P04608 49-57; P09429 1-164)” the same measures were 75.1 nM, 0.000691 s⁻¹ and 9200 M⁻¹ s⁻¹.
